In CN113683686A (INST PASTEUR SHANGHAI CAS, dated 2021):

Key:
[1] = target: SARS-CoV-2 S蛋白 (on MLV-based SARS-CoV-2 pseudovirus) (SARS-CoV-2, UniProt P0DTC2 14-1273); assay: cell-based or functional assay
[2] = target: 重组的SARS-CoV-2 RBD蛋白 (S蛋白320-550位残基, 组氨酸标签) (SARS-CoV-2, UniProt P0DTC2 320-550); assay: BLI (Octet RED96), His-tagged RBD on Ni-NTA sensor, antibody in solution

B1: 单抗2H2 (anti-SARS-CoV-2 RBD mouse monoclonal antibody 2H2) (antibody, V domains shown)
VH: QVQLKQSGPSLVQPSQSLSITCTVSGFSLTSYGVHWVRQSPGKGLEWLGVMWRGGNTDYNAAFMSRLSITKDNSKSQVFFKMNSLQTDDTAIYYCAKNGGAHAMDFWGQGTSVTVSS
VL: NIVLTQSPASLAVSLGQRATISCRASESVDSYGNSFLHWYQQKPGQPPKLLIYLASNLESGVPARFSGSGSRTDFTLTIDPVEADDAATYYCQQNNEDPFTFGSGTKLEIK
半数抑制浓度(IC50), SARS-CoV-2假病毒中和试验 (VeroE6, luciferase) [1]: 0.005 µg/mL | Kd [2]: 7.5 nM

B2: 单抗3C1 (anti-SARS-CoV-2 RBD mouse monoclonal antibody 3C1) (antibody, V domains shown)
VH: EVQLQESGPSLVKPSQTLSLTCSVTGDSITNGYWNWIRKFPGNKLEYMGYISYSGSTYYSPSLKSRISITRDTSKNQHYLQLNSVTSEDTATYYCASDYHGSKYYFDYWGQGTTLTVSS
VL: DIVMTQSHKFMSTSVGHRVSITCKASQDVGNDVAWYQQKPGQSPKLLIYWASTRHTGVPDRFTGSGSGTDFTLTISNVQSEDLADYFCQQYNRYPYTFGGGTKLEIK
半数抑制浓度(IC50), SARS-CoV-2假病毒中和试验 (VeroE6, luciferase) [1]: 1.91 µg/mL | Kd [2]: 13 nM
